Reference: patent US20100257638

System: IL-1-L0-Fok1 zinc finger nuclease (IL-1-Fok1) (synthetic construct)
Experiment: cell_activity
Conditions: inter-chromosomal HR with donor pDAB1600 in tobacco NT1-240; NT1-260 0.1; BY2-380 0.2; donor only 0

## ATTATCCGAGTTTAATAGAACTCGGATAAT (double strand) [IL-1-L0-Fok1 recognition site]
  activity (events per selection plate): 1.2
